Experimental data taken from PMC11290853.
Read-outs that look alike come from different tables or passages of the source.

Assays:
[1] = molecular target: T1, CCK2R(sterol 7M) expressed in HEK-293 cells (human), P32239; experiment: radioligand binding
T1 chain: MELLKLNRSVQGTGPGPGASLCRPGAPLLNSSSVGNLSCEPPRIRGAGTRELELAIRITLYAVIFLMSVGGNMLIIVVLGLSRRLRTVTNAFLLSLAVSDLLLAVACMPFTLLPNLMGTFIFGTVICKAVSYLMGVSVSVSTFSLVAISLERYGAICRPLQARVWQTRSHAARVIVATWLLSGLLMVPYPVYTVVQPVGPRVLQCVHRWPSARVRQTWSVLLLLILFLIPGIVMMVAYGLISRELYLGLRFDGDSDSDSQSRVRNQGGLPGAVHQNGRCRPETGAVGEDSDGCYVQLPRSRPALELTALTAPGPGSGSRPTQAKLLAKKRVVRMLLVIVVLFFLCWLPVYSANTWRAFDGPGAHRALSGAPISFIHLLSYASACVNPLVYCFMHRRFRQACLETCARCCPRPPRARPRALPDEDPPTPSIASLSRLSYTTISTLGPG

[2] = molecular target: T2, CCK1R(sterol 7M) expressed in HEK-293 cells (human), P32238; experiment: radioligand binding
T2 chain: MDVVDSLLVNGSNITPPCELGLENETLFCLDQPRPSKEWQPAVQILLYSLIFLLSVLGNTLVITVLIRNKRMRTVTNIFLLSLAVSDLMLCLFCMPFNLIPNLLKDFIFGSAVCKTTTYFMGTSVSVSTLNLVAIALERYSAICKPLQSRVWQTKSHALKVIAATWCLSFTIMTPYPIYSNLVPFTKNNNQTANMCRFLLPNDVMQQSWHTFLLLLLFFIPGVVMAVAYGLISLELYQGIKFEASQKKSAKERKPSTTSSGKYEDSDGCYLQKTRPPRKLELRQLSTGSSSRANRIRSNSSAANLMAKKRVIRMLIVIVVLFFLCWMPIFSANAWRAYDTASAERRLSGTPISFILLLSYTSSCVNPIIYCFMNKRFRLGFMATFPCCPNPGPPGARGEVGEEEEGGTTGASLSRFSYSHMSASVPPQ

[3] = molecular target: T3, type 2 cholecystokinin receptor, wild type, expressed in HEK-293 cells (human), P32239; experiment: radioligand binding
T3 chain: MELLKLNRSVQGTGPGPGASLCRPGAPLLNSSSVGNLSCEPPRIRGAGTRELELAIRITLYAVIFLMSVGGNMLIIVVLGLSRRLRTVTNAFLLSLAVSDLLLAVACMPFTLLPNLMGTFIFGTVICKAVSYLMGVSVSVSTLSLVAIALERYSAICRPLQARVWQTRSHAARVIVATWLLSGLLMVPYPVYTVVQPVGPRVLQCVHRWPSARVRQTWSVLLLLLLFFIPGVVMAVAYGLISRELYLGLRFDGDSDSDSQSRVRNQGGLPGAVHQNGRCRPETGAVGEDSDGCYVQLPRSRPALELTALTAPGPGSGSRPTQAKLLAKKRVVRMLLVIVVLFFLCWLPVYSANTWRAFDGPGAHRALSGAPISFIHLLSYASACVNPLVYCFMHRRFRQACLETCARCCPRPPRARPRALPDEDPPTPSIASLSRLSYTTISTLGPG

[4] = molecular target: T4, CCK1R(Y140A) expressed in HEK-293 cells (human), P32238; experiment: radioligand binding
T4 chain: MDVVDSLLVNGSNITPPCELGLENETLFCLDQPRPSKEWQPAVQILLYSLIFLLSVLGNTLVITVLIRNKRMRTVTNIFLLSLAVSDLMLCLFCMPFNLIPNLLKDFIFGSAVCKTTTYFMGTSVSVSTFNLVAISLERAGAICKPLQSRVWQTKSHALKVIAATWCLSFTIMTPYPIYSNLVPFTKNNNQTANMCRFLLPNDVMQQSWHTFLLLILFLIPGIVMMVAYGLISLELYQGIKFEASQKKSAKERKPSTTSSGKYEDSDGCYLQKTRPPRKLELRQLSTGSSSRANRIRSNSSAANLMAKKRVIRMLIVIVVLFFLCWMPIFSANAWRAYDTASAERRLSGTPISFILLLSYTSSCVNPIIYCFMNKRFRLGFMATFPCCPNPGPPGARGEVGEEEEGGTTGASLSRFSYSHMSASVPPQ

[5] = molecular target: T5, type 1 cholecystokinin receptor, wild type, expressed in HEK-293 cells (human), P32238; experiment: radioligand binding
T5 chain: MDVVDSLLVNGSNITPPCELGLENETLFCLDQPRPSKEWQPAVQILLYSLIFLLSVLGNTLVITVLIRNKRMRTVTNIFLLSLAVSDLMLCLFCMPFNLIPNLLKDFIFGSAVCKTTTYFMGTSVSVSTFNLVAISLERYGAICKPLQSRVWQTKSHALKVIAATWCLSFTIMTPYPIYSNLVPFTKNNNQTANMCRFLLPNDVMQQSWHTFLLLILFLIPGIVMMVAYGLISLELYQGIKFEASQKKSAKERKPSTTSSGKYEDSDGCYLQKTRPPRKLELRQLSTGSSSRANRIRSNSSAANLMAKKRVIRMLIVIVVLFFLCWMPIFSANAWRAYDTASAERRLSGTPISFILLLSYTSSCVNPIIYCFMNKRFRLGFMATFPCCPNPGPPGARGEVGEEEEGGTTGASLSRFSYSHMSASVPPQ

[6] = molecular target: T1, CCK2R(sterol 7M) expressed in HEK-293 …; experiment: radioligand binding
[7] = molecular target: T2, CCK1R(sterol 7M) expressed in HEK-293 …; experiment: radioligand binding
[8] = molecular target: T3, type 2 cholecystokinin receptor, wild …; experiment: radioligand binding
[9] = molecular target: T6, type 1 cholecystokinin receptor, wild type, expressed in SRD15 cells (human), P32238; experiment: radioligand binding
T6 chain: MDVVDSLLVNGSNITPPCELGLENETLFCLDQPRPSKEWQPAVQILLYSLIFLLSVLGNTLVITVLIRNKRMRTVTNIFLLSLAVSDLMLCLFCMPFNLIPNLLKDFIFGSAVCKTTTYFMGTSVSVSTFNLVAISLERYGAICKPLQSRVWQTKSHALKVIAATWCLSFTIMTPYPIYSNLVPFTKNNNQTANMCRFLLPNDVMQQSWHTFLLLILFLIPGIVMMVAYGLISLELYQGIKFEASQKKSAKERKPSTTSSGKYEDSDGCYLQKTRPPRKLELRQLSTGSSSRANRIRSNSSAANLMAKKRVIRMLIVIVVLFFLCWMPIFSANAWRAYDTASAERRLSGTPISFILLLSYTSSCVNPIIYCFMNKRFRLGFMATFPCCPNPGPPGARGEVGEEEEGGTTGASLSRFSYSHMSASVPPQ

[10] = molecular target: T7, type 1 cholecystokinin receptor, wild type, expressed in CHO-K1 cells (human), P32238; experiment: radioligand binding
T7 chain: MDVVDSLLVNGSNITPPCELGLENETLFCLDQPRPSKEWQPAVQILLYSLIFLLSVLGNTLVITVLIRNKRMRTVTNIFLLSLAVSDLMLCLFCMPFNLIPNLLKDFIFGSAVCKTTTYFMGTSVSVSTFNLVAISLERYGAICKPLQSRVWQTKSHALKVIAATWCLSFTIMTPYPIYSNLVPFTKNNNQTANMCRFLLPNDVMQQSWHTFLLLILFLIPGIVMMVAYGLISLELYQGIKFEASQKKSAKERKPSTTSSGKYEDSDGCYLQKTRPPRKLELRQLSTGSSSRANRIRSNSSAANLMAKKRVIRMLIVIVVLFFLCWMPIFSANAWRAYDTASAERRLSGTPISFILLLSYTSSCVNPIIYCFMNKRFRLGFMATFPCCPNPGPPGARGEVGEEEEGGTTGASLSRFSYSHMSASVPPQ

[11] = molecular target: T4, CCK1R(Y140A) expressed in HEK-293 cells …; experiment: radioligand binding
[12] = molecular target: T5, type 1 cholecystokinin receptor, wild …; experiment: radioligand binding
[13] = molecular target: T1, CCK2R(sterol 7M) expressed in HEK-293 …
[14] = molecular target: T2, CCK1R(sterol 7M) expressed in HEK-293 …
[15] = molecular target: T3, type 2 cholecystokinin receptor, wild …
[16] = molecular target: T6, type 1 cholecystokinin receptor, wild …
[17] = molecular target: T7, type 1 cholecystokinin receptor, wild …
[18] = molecular target: T4, CCK1R(Y140A) expressed in HEK-293 cells …
[19] = molecular target: T5, type 1 cholecystokinin receptor, wild …

WMDF (modifications not checked) [CCK-4, C-terminal tetrapeptide of cholecystokinin]
pIC50 [1]: 7.6
pIC50 [2]: < 4
pIC50 [3]: 7.8
pIC50 [4]: 4.3
pIC50 [5]: 4
pIC50 [6]: 7.2
pIC50 [7]: < 4
pIC50 [8]: 7.7
pIC50 [9]: 5.5
pIC50 [10]: 4.5
pIC50 [11]: 4.3
pIC50 [12]: 4.2
iCa^2+, pEC50; HEK-293 cells, + Chol [13]: 9.2
iCa^2+, pEC50; HEK-293 cells, control [13]: 9.1
iCa^2+, pEC50; HEK-293 cells, + Chol [14]: 6.8
iCa^2+, pEC50; HEK-293 cells, control [14]: 6.7
iCa^2+, pEC50; HEK-293 cells, + Chol [15]: 9.4
iCa^2+, pEC50; HEK-293 cells, control [15]: 9.5
iCa^2+, pEC50; SRD15-CCK1R cells [16]: 6.8
iCa^2+, pEC50; SRD15-CCK1R cells + MβCD (cholesterol depleted) [16]: 5.7
iCa^2+, pEC50; CHO-CCK1R cells [17]: 5.3
iCa^2+, pEC50; HEK-293 cells, + Chol [18]: 5.7
iCa^2+, pEC50; HEK-293 cells, control [18]: 5.7
iCa^2+, pEC50; HEK-293 cells, + Chol [19]: 6.2
iCa^2+, pEC50; HEK-293 cells, control [19]: 5.5
